According to PMC7239899:

Tested on: RpsA WT (Mycobacterium tuberculosis H37Rv)
Experiment: MST
Conditions: MST: PBS-T/MST buffer with 0.1% Tween 20, 15 min at room temperature, 50 nM RpsA, tmRNA dilution series from 4.1 uM; EMSA buffer not given in material

## tmRNA
  Kd: 58.1 nM
